Source: the supplement of paper PMC9170038

Tested on: MS2 coat protein
Test: apparent KD of MS2 coat protein; designed switch direction (-1 OFF switch, 1 ON switch): -1; higher = weaker reporter binding
Summary of the method: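 Designed RNA switches sharing common flanks were transcribed on Illumina chips by stalled E. coli RNA polymerase. They were titrated with SNAP-549-labelled MS2 coat protein, from 0.7 or 1.5 nM doubling to 3 µM, in Tris-HCl pH 7.5 buffer with KCl, MgCl2, BSA, DTT, tRNA and Tween-20. Titrations ran without input, with 200 uM small-molecule ligand, or with an oligonucleotide input. The apparent KD of each design is the median over its clusters, after curve-fitting of normalised cluster fluorescence.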

[1] = input ligand: microRNA oligo, concentration not stated
[2] = Eterna round: R95, input ligand: FMN 200 uM
[3] = Eterna round: R95, input ligand: microRNA oligo, concentration not stated
[4] = Eterna round: R95, input ligand: none

Sequence | apparent KD of MS2 coat protein (input ligand: FMN 200 uM) | apparent KD of MS2 coat protein (input ligand: none) | apparent KD of MS2 coat protein [3] | also measured
GGUACUCAAAGAGUACCAAUACGAACAUGAGGAUCACCCAUGUAGGAUAUGCUACUCAAAGAGUAGCAGAAGGAUAUGAACCCU [Far Half Aptamer v8] (Eterna round: R96, puzzle: Exclusion NG 3) | 33.1 nM | 26.3 nM |  | apparent KD of MS2 coat protein [1]: 16.8 nM
AGUAACUAUCACGAAAGUGAUAGUUACAAUAGCAGUGGAACAUGAGGAUCACCCAUGUCCUCAUUUGCUCGUCUUAU [Sensor 3 - 22] (puzzle: Sensor v3, turn-off variant 2) |  |  | 21.6 nM | apparent KD of MS2 coat protein [2]: 36.2 nM; apparent KD of MS2 coat protein [4]: 38.4 nM
AGUGCUGCAGGAUAUUCUAUUAAUUACAUGAGGAUCACCCAUGUGAAUGGACAAGGGUGUGAAGAAGGGUGGUACG [Omei Ex5 A17i] (Eterna round: R97, puzzle: Exclusion 5) | 262 nM | 496 nM |  | 
GUCACAUGGACAUAGGAUCACAUGAGGAUCACCCAUGUGACUAACAAGCUUUUUGUUCGUCUUAUGUCCAUGUGAAG [Stov1/15-B3] (Eterna round: R97, puzzle: Sensor, turn-off variant 1) | 12.4 nM | 12 nM |  | 
UAAUGUAUAUAGGAUAUCUAGCUGGUAACAGCUAGAGAAGGAUGUACAUGAGGAUCACCCAUGUAAAUCGAUCA [Ex6/11-A2] (Eterna round: R97, puzzle: Exclusion 6) | 83.3 nM | 24.4 nM |  | 
CGUAUGUAAGGAUAUUAGUAGUAGUCAGAAUAGACUAUUACUGAGAAGGUACAUGAGGAUCACCCAUGUUAGCG [Eli x4 4.15] (Eterna round: R97, puzzle: Exclusion 4) | 229 nM | 31.6 nM |  | 
AAGAACGUCGGAGGAUAUCCAGCCAAGCCCGCAGGAGAAGGCCGGCGGUGGGAUGUGCUUCACAUGAGGAUCACCCAUGUUAAU [Onriti] (Eterna round: R96, puzzle: Exclusion NG 1) | 361 nM | 96.2 nM |  | apparent KD of MS2 coat protein [1]: 64.6 nM
CCUCCACAUGAGGAUCACCCAUGUCAGGAUAUCGUGUGUGCUUUUUCGGUCUUUCGUGCGAGAAGGGACGUCUG (puzzle: Exclusion 1) |  |  | 25.5 nM | 
GCAUUGAGUGUGAGGAUAUGCUGGUCCUUGGAUCAGCAGAAGGCACAUGAGGAUCACCCAUGUGAAUACAAUGC [JL bmx4 3.13] (puzzle: Brourd's mod of Exclusion 4) |  |  | 18.9 nM | 
AACCAGCGAGGAUAUGCUUGAGCUUGUUCUGGUUAUAAUCGACUUGAGGAUCACCCAAGUAGAAGGUGCUGACG [EX2 #58] (Eterna round: R97, puzzle: Exclusion 2) | 25.6 nM | 26.9 nM |  | 
UACCUGAGGCAAAGCUUUAGGUAUACAUGAGGAUCACCCAUGUAGGAUAUGGUAGGCUUUGCUUACCAGAAGGACAUGUUAAUU [Mat - Exclusion NG 3 - Mod of JL - D32] (Eterna round: R96, puzzle: Exclusion NG 3) | 161 nM | 39.6 nM |  | apparent KD of MS2 coat protein [1]: 30.4 nM
UAGAUGUGAGGAUAUGGUAAAGAUAAGAUGAUGAAAGAACUCCAGAAGGCACAUGAGGAUCACCCAUGUAGAUG [JL-ex4-2.15 Jieux mod] (puzzle: Exclusion 4) |  |  | 22.3 nM | apparent KD of MS2 coat protein [2]: 78.1 nM; apparent KD of MS2 coat protein [4]: 26 nM
CCGCCAUGAGGAUAUUAGUAGUAGUCAGAAAAGACUAUUACUGAGAAGGCACAUGAGGAUCACCCAUGUAGCGG [Mat - Exclusion 4 - Eli Mod - D50] (Eterna round: R97, puzzle: Exclusion 4) | 18.8 nM | 41 nM |  | 
AGUCGGCGAGGAUAUACAUGAGGAUCACCCAUGUAUGAUCCUAGACCUGUAGGUCCAUGUAGAAGGCGCUGACA [Exclusion 3 - Was a mod at one point v.3] (puzzle: Exclusion 3) |  |  | 66.2 nM | 
CUCCUACAUGAGGAUCACCCAUGUCAGGAUAUCUCAGUGGCACCUAAAUUCGCCACCCAGAGAAGGGACGUGCA [Erralaorge] (puzzle: Exclusion 1) |  |  | 13.4 nM | 
CUUAGACAUGAGGAUCACCCAUGUGAGGAUAUGAUGCAGCAGUGGUCUACGCUGUGCAUCAGAAGGCACAUAUG [mod of disincluded 3 v.3 (my top score 87 - 28% A's)] (puzzle: Exclusion 1) |  |  | 108 nM | 
UAUUAAACAUAGGAUAUCGAAUAAAUCAUUUAACGAGAAGGAUGAACAUGAGGAUCACCCAUGUGGUAUCAUGG [Mat - Exclusion 6 - JL Mod - D14] (puzzle: Exclusion 6) |  |  | 242 nM | 
AAGAAGAAGUAAGGAUAUGAAGAUCUGGUGGUGACAUGAGGAUCACCCAUGUGAAAACGAUGAGAUCAGAAGGUAUAAGAAGAA [AK ExNG2-3.3] (Eterna round: R96, puzzle: Exclusion NG 2) | 116 nM | 89.4 nM |  | apparent KD of MS2 coat protein [1]: 59.9 nM

Sequence | apparent KD of MS2 coat protein (input ligand: FMN 200 uM) | apparent KD of MS2 coat protein (input ligand: none) | apparent KD of MS2 coat protein [3] | also measured
GUUUGCACGCUGCGGUCCUACAUGAGGAUCACCCAUGUGGUCUGGUGGCGUGGGUCGCCGGACUUGGCUCGUCUUGA [salish99_S_TOV1_R5_038] (Eterna round: R97, puzzle: Sensor, turn-off variant 1) | 17.2 nM | 16.9 nM |  | 
UGCGGGCUUUUGAGACCUCACAUGAGGAUCACCCAUGUGCUUGUCUUGUGGGUCGGUCGGUCGUUGGCUGGCUGGCU [-29.6, -52.1 kcal, A 10%] (Eterna round: R97, puzzle: Sensor, turn-off variant 1) | 18 nM | 17.8 nM |  | 
GCACUGCGAGGAUAUACAUGAGGAUCACCCAUGUGUCGGCAGCCACGGUAGUACAAGUGUAGAAGGCGCGUUAG [EX3 #47] (Eterna round: R97, puzzle: Exclusion 3) | 140 nM | 69.1 nM |  | 
UUUACAAGCUAUUGAUCCCACAUGAGGAUCACCCAUGUUGCUGCCGUGAGGUAGCUUUUAACAAUUGCUCGUCUUAU [JL TOV1 3.38] (Eterna round: R97, puzzle: Sensor, turn-off variant 1) | 424 nM | 570 nM |  | 
ACAAGCUUUACGAUCCUCUACAUGAGGAUCACCCAUGUGCUCGUAUUGUUUAGUACUAUCACGAAAGUGAUAGUACA [Sensor, turn off variant 1 v.5] (Eterna round: R97, puzzle: Sensor, turn-off variant 1) | 467 nM | 1090 nM |  | 
UUUAAUUUUUUUUUUUUACAAGCUUUUUGCUCGUCUUAUACAUGAGGAUCACCCAUGUGAAUGGGAAAUGAAUUAUC [JMF 96] (puzzle: Sensor v3, turn-off variant 2) |  |  | 268 nM | apparent KD of MS2 coat protein [2]: 112 nM; apparent KD of MS2 coat protein [4]: 132 nM
GUUAUUUAUGUAGGAUAUGCAAGGCGAACCUAAGCAGAAGGACAUGAGGAUCACCCAUGUAUUGCGGUCUGCGUUCAGAUCGCU [salish99_ExNG1_r4_013] (Eterna round: R96, puzzle: Exclusion NG 1) | 86.2 nM | 22 nM |  | apparent KD of MS2 coat protein [1]: 15 nM
CUCGUGUGAGGAUAUCAACGUCAAGCGUGAGCGAGACGAGAUGAGAAGGUACAUGAGGAUCACCCAUGUGCUCA [Eternabot (Original) Solution 25] (Eterna round: R97, puzzle: Exclusion 4) | 83.1 nM | 20 nM |  | 
AACAAGCUUUAAAGAUCCCACAUGAGGAUCACCCAUGUGCUCGUCUUAUAACGUACUGUGACGAAAGUCACGGUACG [JL TOV1 3.25] (Eterna round: R97, puzzle: Sensor, turn-off variant 1) | 27.7 nM | 37.4 nM |  | 
GGUCAAGAACAGCUCCGCGCUGUCCUUGACCGCUCAUUUACAUGAGGAUCACCCAUGUUUUUUGCUUGUCUUGUUUC [Estetexequ] (puzzle: Sensor v3, turn-off variant 2) |  |  | 98.7 nM | apparent KD of MS2 coat protein [2]: 21 nM; apparent KD of MS2 coat protein [4]: 23.8 nM
GUGGUACAUGAGGAUCACCCAUGUGAGGAUAUGUCUGUCUGUUGGUUUCGGCGGGCGGGCAGAAGGCGCGUCGC [-27.3, -25.1 kcal, 16% A] (Eterna round: R97, puzzle: Exclusion 1) | 34.1 nM | 31.6 nM |  | 
GGAUUGCGGCAAGGAUAUCUUUGUCAACAUAAAACAUGAGGAUCACCCAUGUGCAUCUUCGUGUGAGAGAAGGUGCGGCGAUCC [Geceretima] (Eterna round: R96, puzzle: Exclusion NG 2) | 1620 nM | 180 nM |  | apparent KD of MS2 coat protein [1]: 248 nM
GCUAGAGCAGGAUAUCUAGAUCCACACAUGAGGAUCACCCAUGUAUAGUCGAAAGACUAAAGAGAAGGGCUCUAGC [Omei Ex5 E14] (Eterna round: R97, puzzle: Exclusion 5) | 72.7 nM | 61.8 nM |  | 
ACUAUUAGAGGAUAUACAGUUUAUUACAUGAGGAUCACCCAUGUUCUUCAAUGUAUAUAAGUAGAAGGCUAAGGAA [EX-5 Malc#3] (puzzle: Exclusion 5) |  |  | 45.9 nM | apparent KD of MS2 coat protein [2]: 114 nM; apparent KD of MS2 coat protein [4]: 38.2 nM
CUAUUACGAGGAUAUGAUUUAAAUAACAUGAGGAUCACCCAUGUUUUUACGUUAUUUUGUUUAGAAGGCGUAUUGU [JR_E5_Sub027] (puzzle: Exclusion 5) |  |  | 55.5 nM | 
UAUAUAUAGUAAGGAUAUGUAAUUAUUUCAUAAACAGAAGGUACUGACAUGAGGAUCACCCAUGUUUUAGUGUGGGCAUGUAGA [JMF's solution 43] (Eterna round: R96, puzzle: Exclusion NG 1) |  |  |  | apparent KD of MS2 coat protein [1]: 60.2 nM
CAGUACUGAGGAUAUACAUGAGGAUCACCCAUGUGUUCCAGCUAGGAAACUGGCAAAAGUAGAAGGCAGUACUG [salish99_ex3_r3_070] (puzzle: Exclusion 3) |  |  | 21.6 nM | 
